Results from paper PMC7241105.

Target: SARS-CoV-2 receptor binding domain (RBD) (SARS-CoV-2) (UniProt P0DTC2)
Experiment: BLI

CV30 (antibody) was tested, and the Kd was 3.6 nM.
